Laboratory results: patent US20210380703A1 (RIGEL PHARMACEUTICALS, published 2021)

Key:
mouse ACVR2A = mouse ACVR2A (mouse, UniProt P27038 20-135, limits assumed); assay: ELISA
Procedure, shortened: (§1)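 mAb binding by ELISA; antigens: hu ACVR2A, mu ACVR2A; pos ctrl biotinylated goat anti-hu kappa LC; neg ctrl hu Fc.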

human ACVR2A = biological target: T1, human ACVR2A (human, UniProt P27037 20-135, limits assumed); assay: ELISA
T1 construct: also called activin receptor, type II A
Procedure, shortened: as §1

[1] = biological target: T2, biotinylated goat anti-human kappa light chain; assay: ELISA, positive control
T2 construct: positive control of the ELISA
Procedure, shortened: as §1
Note: test concentration or dose not given here.

Sequence of mouse ACVR2A (P27038 20-135 limits assumed): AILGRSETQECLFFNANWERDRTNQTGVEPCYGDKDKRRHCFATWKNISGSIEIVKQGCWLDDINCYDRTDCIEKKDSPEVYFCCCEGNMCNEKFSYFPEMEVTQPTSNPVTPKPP
T1 sequence (P27037 20-135 limits assumed): as the sequence (P27038 20-135 limits assumed) above, with R20K, I73V counted along it

Binder | optical density (mouse ACVR2A) [OD] | optical density (human ACVR2A) [OD] | optical density [1] [OD]
365_H08 (antibody, V domains shown, Group I) VH: EVQLLESGGGLVQPGGSLRLSCAASGFTFSSYGMHWVRQAPGKGLEWVASINYNGGYKSYADSVKGRFTISRDNSKNTLYLQMNSLRAEDTAVYYCARAANWHDTALDYWGQGTLVTVSS VL: not shown | 2.61 | 2.67 | 3.59
366_A04 (antibody, V domains shown, Group I) VH: EVQLLESGGGLVQPGGSLRLSCAASGFTFSSYGMNWVRQAPGKGLEWVAGINYNGGYTSYADSVKGRFTISRDNSKNTLYLQMNSLRAEDTAVYYCARAANWHDTALDYWGQGTLVTVSS VL: DIQMTQSPSSLSASVGDRVTITCRASQSILTYLNWYQQKPGKAPKLVIYAATSLASGVPSRFSGSGSGTDFTLTISSLQPEDFATYYCQQSDDSPLTFGGGTKVEIK | 1.99 | 1.82 | 3.4
366_B09 (antibody, V domains shown, Group II) VH: EVQLLESGGGLVQPGGSLRLSCAASGFTFSDYGMHWVRQAPGKGLEWVSSINYNSGYKSYADSVKGRFTISRDNSKNTLYLQMNSLRAEDTAVYYCARAATWHDTHLDYWGQGTLVTVSS VL: DIQMTQSPSSLSASVGDRVTITCRASQSILTYLNWYQQKPGKAPKLVIYAATSRHSGVPSRFSGSGSGTDFTLTISSLQPEDFATYYCQQSYDSPLTFGGGTKVEIK | 2.53 | 2.3 | 3.39
366_B07 (antibody, V domains shown, Group III) VH: EVQLLESGGGLVQPGGSLRLSCAASGFTFSDYGMNWVRQAPGKGLEWVSGINYNGGYTSYADSVKGRFTISRDNSKNTLYLQMNSLRAEDTAVYYCARGANWHDTHLDYWGQGTLVTVSS VL: DIQMTQSPSSLSASVGDRVTITCRASQSIVSYLNWYQQKPGKAPKLVIYATTSRASGVPSRFSGSGSGTDFTLTISSLQPEDFATYYCQQSYNSPLTFGGGTKVEIK | 1.92 | 1.8 | 3.22
366_D03 (antibody, V domains shown, Group I) VH: EVQLLESGGGLVQPGGSLRLSCAASGFTFDSYGMHWVRQAPGKGLEWVSSINYNGGYTGYADSVKGRFTISRDNSKNTLYLQMNSLRAEDTAVYYCARAANWHDTHLDYWGQGTLVTVSS VL: DIQMTQSPSSLSASVGDRVTITCRASQSILSYVNWYQQKPGKAPKLLIYAATSRASGVPSRFSGSGSGTDFTLTISSLQPEDFATYYCQQSYDLPLTFGGGTKVEIK | 2.38 | 2.23 | 3.48
366_D01 (antibody, V domains shown, Group I) VH: EVQLLESGGGLVQPGGSLRLSCAASGFTFSSYGMHWVRQAPGKGLEWVSSINYNGGYTGYADSVKGRFTISRDNSKNTLYLQMNSLRAEDTAVYYCARAANWHDTHLDYWGQGTLVTVSS VL: DIQMTQSPSSLSASVGDRVTITCRASQSILTYVNWYQQKPGKAPKLLIYAATSRASGVPSRFSGSGSGTDFTLTISSLQPEDFATYYCQQSYENPLTFGGGTKVEIK | 2.46 | 2.36 | 3.48
366_A02 (antibody, V domains shown, Group I) VH: EVQLLESGGGLVQPGGSLRLSCAASGFTFDSYGMNWVRQAPGKGLEWVASINYNSGYKGYADSVKGRFTISRDNSKNTLYLQMNSLRAEDTAVYYCARAANWHDTHLDYWGQGTLVTVSS VL: DIQMTQSPSSLSASVGDRVTITCRASQSIVSYVNWYQQKPGKAPKLLIYAATSRASGVPSRFSGSGSGTDFTLTISSLQPEDFATYYCQQSYDLPLTFGGGTKVEIK | 2.69 | 2.45 | 3.58
366_C05 (antibody, V domains shown, Group II) VH: EVQLLESGGGLVQPGGSLRLSCAASGFTFDDYGMHWVRQAPGKGLEWVSSINYNGGYTGYADSVKGRFTISRDNSKNTLYLQMNSLRAEDTAVYYCARAATWHDTHLDYWGQGTLVTVSS VL: DIQMTQSPSSLSASVGDRVTITCRASQSIISYLNWYQQKPGKAPKLVIYAATSRASGVPSRFSGSGSGTDFTLTISSLQPEDFATYYCQQSYDSPLTFGGGTKVEIK | 2.36 | 2.01 | 3.4

Now from value to binder:

optical density (mouse ACVR2A) [OD] | optical density (human ACVR2A) [OD] | optical density [1] [OD] | Binder
2.45 | 2.58 | 3.44 | 367_A03 (antibody, V domains shown, Group III) VH: EVQLLESGGGLVQPGGSLRLSCAASGFTFDSYGMNWVRQAPGKGLEWVAGINYNGGYTSYADSVKGRFTISRDNSKNTLYLQMNSLRAEDTAVYYCARGANWHDTALDYWGQGTLVTVSS VL: DIQMTQSPSSLSASVGDRVTITCRASQSILTYVNWYQQKPGKAPKLLIYATTSRHSGVPSRFSGSGSGTDFTLTISSLQPEDFATYYCQQSYDSPLTFGGGTKVEIK
2.83 | 2.71 | 3.59 | 366_G12 (antibody, V domains shown, Group III) VH: EVQLLESGGGLVQPGGSLRLSCAASGFTFSSYGMHWVRQAPGKGLEWVSGINYNSGYKGYADSVKGRFTISRDNSKNTLYLQMNSLRAEDTAVYYCARGANWHDTHLDYWGQGTLVTVSS VL: DIQMTQSPSSLSASVGDRVTITCRASQSILSYLNWYQQKPGKAPKLLIYAATSRHSGVPSRFSGSGSGTDFTLTISSLQPEDFATYYCQQSYNTPLTFGGGTKVEIK
2.77 | 2.79 | 3.71 | 366_H01 (antibody, V domains shown, Group II) VH: EVQLLESGGGLVQPGGSLRLSCAASGFTFDDYSMHWVRQAPGKGLEWVANINYNGGYTSYADSVKGRFTISRDNSKNTLYLQMNSLRAEDTAVYYCARAATWHDTHLDYWGQGTLVTVSS VL: DIQMTQSPSSLSASVGDRVTITCRASQSILTYLNWYQQKPGKAPKLVIYATTSRHSGVPSRFSGSGSGTDFTLTISSLQPEDFATYYCQQSYESPLTFGGGTKVEIK
2 | 1.97 | 3.35 | 366_E08 (antibody, V domains shown, Group III) VH: EVQLLESGGGLVQPGGSLRLSCAASGFTFSDYSMNWVRQAPGKGLEWVSNINYNGGYTSYADSVKGRFTISRDNSKNTLYLQMNSLRAEDTAVYYCARGANWHDTHLDYWGQGTLVTVSS VL: DIQMTQSPSSLSASVGDRVTITCRASQSIVTYLNWYQQKPGKAPKLLIYAATSRHSGVPSRFSGSGSGTDFTLTISSLQPEDFATYYCQQSYSNPLTFGGGTKVEIK
2.82 | 2.68 | 3.41 | 366_G06 (antibody, V domains shown, Group I) VH: EVQLLESGGGLVQPGGSLRLSCAASGFTFSSYGMHWVRQAPGKGLEWVASINYNGGYTGYADSVKGRFTISRDNSKNTLYLQMNSLRAEDTAVYYCARAANWHDTHLDYWGQGTLVTVSS VL: DIQMTQSPSSLSASVGDRVTITCRASQSIVSYVNWYQQKPGKAPKLVIYAATSRASGVPSRFSGSGSGTDFTLTISSLQPEDFATYYCQQSYDNPLTFGGGTKVEIK
2.32 | 2.16 | 3.56 | 366_G02 (antibody, V domains shown, Group II) VH: EVQLLESGGGLVQPGGSLRLSCAASGFTFDSYGMHWVRQAPGKGLEWVSSINYNGGYTSYADSVKGRFTISRDNSKNTLYLQMNSLRAEDTAVYYCARAATWHDTHLDYWGQGTLVTVSS VL: DIQMTQSPSSLSASVGDRVTITCRASQSILTYLNWYQQKPGKAPKLLIYAATSRHSGVPSRFSGSGSGTDFTLTISSLQPEDFATYYCQQSDDNPLTFGGGTKVEIK
2.21 | 2.05 | 3.52 | 366_F10 (antibody, V domains shown, Group I) VH: EVQLLESGGGLVQPGGSLRLSCAASGFTFDSYSMNWVRQAPGKGLEWVAGINYNGGYTGYADSVKGRFTISRDNSKNTLYLQMNSLRAEDTAVYYCARAANWHDTHLDYWGQGTLVTVSS VL: DIQMTQSPSSLSASVGDRVTITCRASQSIVSYLNWYQQKPGKAPKLVIYAATSRASGVPSRFSGSGSGTDFTLTISSLQPEDFATYYCQQSYDTPLTFGGGTKVEIK
1.86 | 1.68 | 3.14 | 366_E07 (antibody, V domains shown, Group II) VH: EVQLLESGGGLVQPGGSLRLSCAASGFTFDSYGMHWVRQAPGKGLEWVAGINYNGGYTSYADSVKGRFTISRDNSKNTLYLQMNSLRAEDTAVYYCARAATWHDTALDYWGQGTLVTVSS VL: DIQMTQSPSSLSASVGDRVTITCRASQSILTYLNWYQQKPGKAPKLVIYAATSRHSGVPSRFSGSGSGTDFTLTISSLQPEDFATYYCQQSDNSPLTFGGGTKVEIK
2.72 | 2.69 | 3.66 | 366_E01 (antibody, V domains shown, Group III) VH: EVQLLESGGGLVQPGGSLRLSCAASGFTFDSYGMNWVRQAPGKGLEWVSNINYNGGYKSYADSVKGRFTISRDNSKNTLYLQMNSLRAEDTAVYYCARGANWHDTHLDYWGQGTLVTVSS VL: DIQMTQSPSSLSASVGDRVTITCRASQSILTYLNWYQQKPGKAPKLLIYAATSRASGVPSRFSGSGSGTDFTLTISSLQPEDFATYYCQQSYSSPLTFGGGTKVEIK
2.83 | 2.69 | 3.52 | 366_H04 (antibody, V domains shown, Group III) VH: EVQLLESGGGLVQPGGSLRLSCAASGFTFDSYGMNWVRQAPGKGLEWVSNINYNGGYKSYADSVKGRFTISRDNSKNTLYLQMNSLRAEDTAVYYCARGANWHDTHLDYWGQGTLVTVSS VL: DIQMTQSPSSLSASVGDRVTITCRASQSILTYLNWYQQKPGKAPKLLIYAATSRASGVPSRFSGSGSGTDFTLTISSLQPEDFATYYCQQSYSSPLTFGGGTKVEIK
2.11 | 2.15 | 3.6 | 366_F02 (antibody, V domains shown, Group III) VH: EVQLLESGGGLVQPGGSLRLSCAASGFTFSSYGMNWVRQAPGKGLEWVSGINYNSGYTGYADSVKGRFTISRDNSKNTLYLQMNSLRAEDTAVYYCARGANWHDTHLDYWGQGTLVTVSS VL: DIQMTQSPSSLSASVGDRVTITCRASQSILTYLNWYQQKPGKAPKLVIYAATSRHSGVPSRFSGSGSGTDFTLTISSLQPEDFATYYCQQSYDNPLTFGGGTKVEIK
